Experimental data reported in patent publication US20140302029A1 (SAMSUNG ELECTRONICS, published 2014).

Tests used:
[1] = biological target: T1, EGFR-Fc (#344-ER, R&D Systems) (UniProt P00533 25-645); assay: SPR, Biacore T100; ME-03S captured on human Fab binder, EGFR-Fc injected
T1 construct: Bought reagent; not shown: Fc part of the bought fusion
Protocol: (§1) In addition, the affinities of the prepared anti-c-Met/anti-EGFR bispecific antibody toward two types of antigens (c-Met/EGFR) were each identified using Biacore T100 (GE). A human Fab binder (GE Healthcare) was immobilized at the surface of a CM5 chip (#BR-1005-30, GE) according to the manufacturer's specifications. […] 10 mM Glycine-HCl (pH 1.5) solution was injected thereto to regenerate the surface. In order to measure affinity, the data obtained from this experiment was fitted using BIAevaluation software (GE Healthcare, Biacore T100 evaluation software).

[2] = biological target: T2, c-Met-Fc (#358-MT/CF, R&D Systems) (human, UniProt P08581 25-932); assay: SPR, Biacore T100; ME-03S captured on human Fab binder, c-Met-Fc injected
T2 construct: also called human c-Met/Fc fusion protein (R&D Systems); not shown: Fc part of the bought fusion
Protocol: as §1

T2 sequence (P08581 25-932 limits assumed): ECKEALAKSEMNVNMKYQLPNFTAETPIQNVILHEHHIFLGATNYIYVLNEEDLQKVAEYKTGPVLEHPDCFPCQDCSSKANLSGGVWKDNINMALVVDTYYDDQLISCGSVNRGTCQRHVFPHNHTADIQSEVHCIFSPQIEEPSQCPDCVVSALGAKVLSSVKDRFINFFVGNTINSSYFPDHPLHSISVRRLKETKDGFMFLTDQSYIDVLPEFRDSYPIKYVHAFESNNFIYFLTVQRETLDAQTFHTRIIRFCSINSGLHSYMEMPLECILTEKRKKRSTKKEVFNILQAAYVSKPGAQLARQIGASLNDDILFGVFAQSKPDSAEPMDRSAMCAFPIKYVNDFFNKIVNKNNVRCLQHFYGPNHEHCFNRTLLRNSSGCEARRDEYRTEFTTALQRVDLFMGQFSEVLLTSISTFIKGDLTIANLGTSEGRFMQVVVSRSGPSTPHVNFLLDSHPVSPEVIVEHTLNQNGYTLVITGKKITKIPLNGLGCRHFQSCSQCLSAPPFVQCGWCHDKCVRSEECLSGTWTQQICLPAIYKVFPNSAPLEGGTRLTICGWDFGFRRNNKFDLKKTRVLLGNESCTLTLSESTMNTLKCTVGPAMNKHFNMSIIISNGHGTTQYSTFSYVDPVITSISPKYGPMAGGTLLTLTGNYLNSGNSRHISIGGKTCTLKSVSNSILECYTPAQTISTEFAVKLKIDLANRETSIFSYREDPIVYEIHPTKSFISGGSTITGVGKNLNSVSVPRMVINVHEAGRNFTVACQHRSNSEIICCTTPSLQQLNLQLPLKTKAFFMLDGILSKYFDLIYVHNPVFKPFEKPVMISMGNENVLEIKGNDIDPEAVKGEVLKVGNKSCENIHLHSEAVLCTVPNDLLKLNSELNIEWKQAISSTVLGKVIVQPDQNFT

B1: anti-c-Met/anti-EGFR bispecific antibody ME-03S (bispecific antibody)
heavy: EVQLVESGGGLVQPGGSLRLSCAASGFTFTDYYMSWVRQAPGKGLEWLGFIRNKANGYTTEYSASVKGRFTISRDNSKNTLYLQMNSLRAEDTAVYYCARDNWFAYWGQGTLVTVSSASTKGPSVFPLAPCSRSTSESTAALGCLVKDYFPEPVTVSWNSGALTSGVHTFPAVLQSSGLYSLSSVVTVPSSNFGTQTYTCNVDHKPSNTKVDKTVERKCCVECPPCPAPPVAGPSVFLFPPKPKDTLMISRTPEVTCVVVDVSHEDPEVQFNWYVDGVEVHNAKTKPREEQFNSTFRVVSVLTVVHQDWLNGKEYKCKVSNKGLPAPIEKTISKTKGQPREPQVYTLPPSREEMTKNQVSLTCLVKGFYPSDIAVEWESNGQPENNYKTTPPMLDSDGSFFLYSKLTVDKSRWQQGNVFSCSVMHEALHNHYTQKSLSLSPGKGGGGSGGGGSQVQLVQSGAEVKKPGSSVKVSCKASGFTFTDYKIHWVRQAPGQCLEWMGYINPNSGYSTYASKFQGRVTITADKSTSTAYMELSSLRSEDTAVYYCARLSPGGYYVMDAWGQGTTVTVSSGGGGSGGGGSGGGGSDIQMTQSPSSLSASVGDRVTITCRASQGINNYLNWYQQKPGKAPKLLIYNTNNLQTGVPSRFSGSGSGTEFTLTISSLQPEDEATYYCLQHNSFPTFGQCTKLEIKRT
light: DIQMTQSPSSLSASVGDRVTITCKSSQSLLASGNQNNYLAWYQQKPGKAPKMLIIWASTRVSGVPSRFSGSGSGTDFTLTISSLQPEDFATYYCQQSYSRPYTFGQGTKVEIKRTVAAPSVFIFPPSDEQLKSGTASVVCLLNNFYPREAKVQWKVDNALQSGNSQESVTEQDSKDSTYSLSSTLTLSKADYEKHKVYACEVTHQGLSSPVTKSFNRGEC
Kd [1]: 0.12 nM | koff [1]: 2.7e-05 s⁻¹ | kon [1]: 240000 M⁻¹ s⁻¹ | Kd [2]: 0.14 nM | koff [2]: 9.3e-05 s⁻¹ | kon [2]: 660000 M⁻¹ s⁻¹
